Source: patent US20040248206A1 (FIBROGEN, published 2004)

Columns and labels:
[1] = molecular target: T1, rat CTGF (rat, UniProt Q9R1E9 25-347); test: RIA, unlabeled rat CTGF competing with [125I]rhCTGF for immobilized antibody
T1 construct: also called unlabeled rat CTGF; recombinant rat CTGF
T1 sequence (looked up): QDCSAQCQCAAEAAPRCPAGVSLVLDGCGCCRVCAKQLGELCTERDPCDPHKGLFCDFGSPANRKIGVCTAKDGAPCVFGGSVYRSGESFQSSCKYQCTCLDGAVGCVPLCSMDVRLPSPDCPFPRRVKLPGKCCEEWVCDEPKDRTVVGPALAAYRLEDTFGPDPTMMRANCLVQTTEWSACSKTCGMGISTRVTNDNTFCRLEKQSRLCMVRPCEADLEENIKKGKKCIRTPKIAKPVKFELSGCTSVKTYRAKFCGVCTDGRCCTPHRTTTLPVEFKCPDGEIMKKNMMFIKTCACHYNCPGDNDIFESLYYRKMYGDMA
Description: (§1) The affinity of each antibody population identified by epitope mapping was measured using RIA, wherein whole rhCTGF was radio-iodinated and added to wells containing immobilized monoclonal antibody, as follows. Recombinant human CTGF was radiolabeled with ¹²⁵I using the chloramine-T method. (See, Greenwood et al. (1963) Biochem J 89:114-123.) Typically, at least 60% of the ¹²⁵I was incorporated and the specific activity of the labeled CTGF was at least 1×10⁵ cpm/ng, although labeled CTGF of lower specific activity can be used in the radioimmunoassay. Goat anti-human IgG, γFc-specific capture antibody (Jackson ImmunoResearch) in Ca²⁺- and Mg²⁺-free DPBS (Mediatech, Herrndon Va.) was added to the wells of a MAXISORP BREAKAPART microtiter plate (Nalge Nunc International, Rochester N.Y.) and allowed to bind overnight at 4° C. The wells were then blocked with 1% BSA in Ca²⁺- and Mg²⁺-free DPBS for at least 4 hours at 4° C. The blocking solution was removed and 100 μl of test antibody at 2-50 ng/ml in Ca²⁺- and Mg²⁺-free DPBS was added and allowed to bind overnight at 4° C. […] Wells were then washed four times with 0.1% Tween 20 in Ca²⁺- and Mg²⁺-free PBS (Mediatech), and the wells of the microtiter plate were separated and counted in a gamma counter. […]

[2] = molecular target: T2, recombinant human connective tissue growth factor (human, UniProt P29279 27-349); test: RIA, immobilized antibody, [125I]rhCTGF with unlabeled rhCTGF, Scatchard
T2 construct: Radio-iodinated in the RIA; also called rhCTGF; CTGF
T2 sequence: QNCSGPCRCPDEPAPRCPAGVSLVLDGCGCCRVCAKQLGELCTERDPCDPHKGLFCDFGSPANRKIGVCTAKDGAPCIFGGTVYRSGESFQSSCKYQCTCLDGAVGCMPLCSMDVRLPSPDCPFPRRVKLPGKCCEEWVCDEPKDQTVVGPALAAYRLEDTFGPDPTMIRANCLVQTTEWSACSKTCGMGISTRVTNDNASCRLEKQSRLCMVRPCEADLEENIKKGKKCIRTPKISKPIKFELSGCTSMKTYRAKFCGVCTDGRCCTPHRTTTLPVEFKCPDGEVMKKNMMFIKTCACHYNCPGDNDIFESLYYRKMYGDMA
Description: The affinity of each antibody population identified by epitope mapping was measured using RIA, wherein whole rhCTGF was radio-iodinated and added to wells containing immobilized monoclonal antibody, as follows. Recombinant human CTGF was radiolabeled with ¹²⁵I using the chloramine-T method. (See, Greenwood et al. (1963) Biochem J 89:114-123.) Typically, at least 60% of the ¹²⁵I was incorporated and the specific activity of the labeled CTGF was at least 1×10⁵ cpm/ng, although labeled CTGF of lower specific activity can be used in the radioimmunoassay. Goat anti-human IgG, γFc-specific capture antibody (Jackson ImmunoResearch) in Ca²⁺- and Mg²⁺-free DPBS (Mediatech, Herrndon Va.) was added to the wells of a MAXISORP BREAKAPART microtiter plate (Nalge Nunc International, Rochester N.Y.) and allowed to bind overnight at 4° C. The wells were then blocked with 1% BSA in Ca²⁺- and Mg²⁺-free DPBS for at least 4 hours at 4° C. […] Wells were then washed four times with 0.1% Tween 20 in Ca²⁺- and Mg²⁺-free PBS (Mediatech), and the wells of the microtiter plate were separated and counted in a gamma counter.
Affinity was estimated graphically by the method of Scatchard (1948, Ann NY Acad Sci 51:660-72). The total concentration of labeled CTGF applied to the plate was calculated as […]

[3] = molecular target: T3, rat CTGF (rat, UniProt Q9R1E9 25-347); test: Scatchard competitive binding; mAb 5 ng/ml; labeled human CTGF vs unlabeled rat CTGF
T3 chain: T1 sequence (looked up)

[4] = molecular target: T4, recombinant human connective tissue growth factor (UniProt P29279 27-349); test: Scatchard competitive binding; mAb 2.5 ng/ml
T4 chain: T2 sequence

[5] = molecular target: T4, recombinant human connective tissue …; test: Scatchard competitive binding; mAb 25 ng/ml
[6] = molecular target: T5, P40341; test: ELISA with synthetic peptide
T5 construct: Same as P40340 with Ser in place of the Cys
T5 peptide: RLPSPDSPFPRRV

[7] = molecular target: T6, 9MER2; test: ELISA with synthetic peptide
T6 peptide: CPFPRRVKL

[8] = molecular target: T7, 8MER; test: ELISA with synthetic peptide
T7 peptide: DSPFPRRV

[9] = molecular target: T8, 7MER; test: ELISA with synthetic peptide
T8 construct: The N-terminal C is probably the added, non-native cysteine (underlining lost in the text)
T8 peptide: CPRRVKL

[10] = molecular target: T9, 10MER; test: ELISA with synthetic peptide
T9 peptide: SPDSPFPRRV

[11] = molecular target: T10, PEP5 (human); test: ELISA with synthetic peptide
T10 peptide: RLPSPDCPFPRRVKL

[12] = molecular target: T11, 5MER; test: ELISA with synthetic peptide
T11 construct: The N-terminal C is probably the added, non-native cysteine (underlining lost in the text)
T11 peptide: CRVKL

[13] = molecular target: T12, 9MER; test: ELISA with synthetic peptide
T12 peptide: PDSPFPRRV

[14] = molecular target: T13, P40342 (human); test: ELISA with synthetic peptide
T13 peptide: LPSPDCPFPRRVKL

[15] = molecular target: T14, PC5445 (human); test: ELISA with synthetic peptide
T14 peptide: RLPSPDSPFPRRVKLPGK

[16] = molecular target: T15, P40340 (human); test: ELISA with synthetic peptide
T15 peptide: RLPSPDCPFPRRV

[17] = molecular target: T16, 10MER2; test: ELISA with synthetic peptide
T16 peptide: SPDCPFPRRV

[18] = molecular target: T17, 8MER2; test: ELISA with synthetic peptide
T17 peptide: CFPRRVKL

[19] = molecular target: T18, PC5444; test: ELISA with synthetic peptide
T18 construct: Synthetic peptide of the exon 3 region with Ser where native CTGF has Cys
T18 peptide: PLSSMDVRLPSPDS

[20] = molecular target: T19, 6MER; test: ELISA with synthetic peptide
T19 construct: The N-terminal C is probably the added, non-native cysteine (underlining lost in the text)
T19 peptide: CRRVKL

[21] = molecular target: T3, rat CTGF; test: Scatchard competitive binding; mAb 10 ng/ml; labeled human CTGF vs unlabeled rat CTGF
[22] = molecular target: T4, recombinant human connective tissue …; test: Scatchard competitive binding; mAb 5 ng/ml
[23] = molecular target: T4, recombinant human connective tissue …; test: Scatchard competitive binding; mAb 10 ng/ml
[24] = molecular target: T2, recombinant human connective tissue …; test: RIA as in Example 4.2
Description: as §1

[25] = molecular target: T2, recombinant human connective tissue …; test: not stated (assays as described in Example 4)

B1: mAb1 (antibody, V domains shown)
VH: EGQLVQSGGGLVHPGGSLRLSCAGSGFTFSSYGMHWVRQAPGKGLEWVSGIGTGGGTYSTDSVKGRFTISRDNAKNSLYLQMNSLRAEDMAVYYCARGDYYGSGSFFDCWGQGTLVTVSS
VL: DIQMTQSPSSLSASVGDRVTITCRASQGISSWLAWYQQKPEKAPKSLIYAASSLQSGVPSRFSGSGSGTDFTLTISSLQPEDFATYYCQQYNSYPPTFGQGTKLEIKR
notes: also called exemplary antibody of the invention; antibody of hybridoma cell line 8C12-F10
B1 was tested, and the binding result [1] was “binds”, the Kd [2] was less than 1 nM and the Kd [3] was 0.317 nM. For the same binder, the Kd [4] was 0.215 nM, the Kd [5] was 0.384 nM and the binding result [6] was “no binding”. B1: no binding [7]; no binding [8]; no binding [9]. B1: no binding [10]; binds [11]; no binding [12]. B1: no binding [13]; binds [14]; binds [15]. B1: binds [16]; no binding [17]; no binding [18]. The binding result [19] was “no binding”, the binding result [20] was “no binding” and the Kd [21] was 0.339 nM. For the same binder, the Kd [22] was 0.239 nM and the Kd [23] was 0.271 nM.

B2: deglycosylated mAb1 (antibody, V domains shown)
VH: B1 VH
VL: B1 VL
modifications: N-linked oligosaccharides removed with peptide N-glycosidase F (PNGase F)
notes: also called deglycosylated antibody; PNGase F treated mAb1
B2: binds [24].

B3: CLN1 (antibody, V domains shown)
VH: B1 VH
VL: B1 VL
notes: also called recombinant antibody from COS7 cells co-transfected with plasmids 44a1 and 42b2
For B3, the Kd [25] was 0.8 nM.
